biological target: SARS-COV-2 Spike glycoprotein receptor binding domain (RBD) (SARS-CoV-2, UniProt P0DTC2 319-541)

Binder | Kd
AHB2-1 (designed binder) ELEERVMHLLDQVSELAHELLHKLTGEELQRATHFDKWANEAILELIKSDDEREIREIEEEARRILEHLEELARK | 0.2 nM
LCB8-1 (designed binder) PIIELLREAKEKNDEFAISDALYLVNELLQRTGDPRLEEVLYLIWRALKEKDPRLLDRAIELFER | 0.2 nM
LCB8-2 (designed binder) PVTELLREAKEKNDPMAISDALFLVFELAQRTGDPRLEEVLFLIWRALKEKDPRLLDRAIELFER | 0.2 nM
LCB5-1 (designed binder) SLEELKEQVKELKKELSPEMRRLIEEALRFLEEGNPAMAMMVLSDLVYQLGDPRVIDLYMLVTKT | 0.2 nM
LCB5-2 (designed binder) SLEEVKEILKELKKELSPEDRRLIEEALRLLEEGNPAMASMVLSDLVFLLGDPRVIELLMLVTKT | 0.2 nM
Mucin_LCB1_v1.3 (designed binder) AKAKAKAKAKAKAKAKAKAKGGDKENILQKIYEIMKTLEQLGHAEASMQVSDLIYEFMKQGDERLLEEAERLLEEVER | 0.2 nM
LCB1-24GS-LCB1 (designed binder) DKEWILQKIYEIMRLLDELGHAEASMRVSDLIYEFMKKGDERLLEEAERLLEEVERGGGSGGGSSGGSGGSSGGGSGGGSDKEWILQKIYEIMRLLDELGHAEASMRVSDLIYEFMKKGDERLLEEAERLLEEVER | 0.2 nM
LCB3_v1.2 (designed binder, also called LCB3-3) NDDELHMQMTDLVYEALHFAKDEEIQKHVFQLFEKATKAYKNKDRQKLEKVVEELKELLERLLS | 0.2 nM
LCB3_v1.1 (designed binder) NDDELHMQMTDLVYEALHFAKDEEFQKHVFQLFEKATKAYKNNDRQKLEKVVEELKELLERLLS | 0.2 nM
LCB3_v1.4 (designed binder) NDDELHMQMTDLVYEALHKAKDEEFQKHVFQLFEKATKARKNKDRQKLEKVVEELKELLERLLS | 0.2 nM
LCB3_v1.3 (designed binder) NDDELHMQMTDLVYEALHFAKDEEFQKHVFQLFEKATKAYKNKDRQKLEKVVEELKELLERLLS | 0.2 nM
LCB3-4 (designed binder) NDDELHMQMTDLVYEALHFAKDEEIQKHVFQLFENATKAYKNKDRQKLEKVVEELKELLERLLS | 0.2 nM
LCB3_v1.5 (designed binder) NDDELHMQMTDLVYEALHKAKDEEMQKRVFQLFEQADKAYKTKDRQKLEKVVEELKELLERLLS | 0.2 nM
LCB3-2 (designed binder) NDDELLMLVTDLVAEALLFAKDEEIKKRVFTLFELADKAYKNNDRDTLSKVVSELKELLERLQ | 0.2 nM
LCB1-36GS-LCB1 (designed binder) DKEWILQKIYEIMRLLDELGHAEASMRVSDLIYEFMKKGDERLLEEAERLLEEVERGGGSGGGSGGSGGSGGGSGGGSGSGGSGGGGSGGGSDKEWILQKIYEIMRLLDELGHAEASMRVSDLIYEFMKKGDERLLEEAERLLEEVER | 0.2 nM
AHB1-2 (designed binder) DEDLEELERLYRKAEEVAKEAEEASRRGDKERAKELLERALHLFDQVFELAQELQEKLTDEKRQKATHLDKAVHEAADELYQRVR | 0.2 nM
AHB1-1 (designed binder) DEDLEELERLYRKAEEVAKEAKDASRRGDDERAKEQMERAMRLFDQVFELAQELQEKQTDGNRQKATHLDKAVKEAADELYQRVR | 0.2 nM

— US20230250134A1 (University of Washington, published 2023)
